Data reported in publication PMC5095173, “Disulfide-activated protein kinase G Iα regulates cardiac diastolic relaxation and fine-tunes the Frank–Starling response” (Nature Communications, 2016).

System: PKGIα Cys42 interchain disulfide bond
Experiment: Dihydrolipoic acid/lipoic acid redox titration of recombinant PKGIα, disulfide dimerization by SDS-PAGE
Assay type: physicochemical
Settings: in vitro, unpublished data
Text: PhD thesis (2015) by Daniel Stubbert from this lab. We have amended the manuscript so that it now states that the PKGIα Cys42 disulfide bond is reversible and referenced the literature detailing the auranofin experiments described above:
“Reactive oxygen species (ROS) promote formation of a reversible intermolecular disulfide bond between the two subunits of the PKGIα homodimer at Cys424,5.”
Furthermore, in relation to reversibility, we also have unpublished data relating to the thermodynamic stability of the Cys42 interchain disulfide bond in vitro. We have performed a dihydrolipoic acid/lipoic acid redox titration with recombinant PKGIα and analysed the amount of disulfide dimerization by SDS-PAGE. The equilibrium redox potential was determined as approximately −280 mV; a value within the conﬁnes of the cellular redox potenƟal which ranges from ~−350 to –150 mV depending on e.g. the organelle an d stage of the cell cycle (Jones, D. P.
Journal of Internal Medicine 268, 432-448 (2010); Jones, D. P. American Journal of Physiology - Cell […]
consistent with our findings from tissue and cells, and arguably ex actly what would be expected of a protein that is required to rapidly transduce an oxidant signal into a biological response.
--What are the consequences of cys42 oxidation for cGMP activation of PKG? […]

B1: PKGIα: recombinant PKGIα; Cys42 interchain disulfide bond (protein)
chain: MSELEEDFAKILMLKEERIKELEKRLSEKEEEIQELKRKLHKCQSVLPVPSTHIGPRTTRAQGISAEPQTYRSFHDLRQAFRKFTKSERSKDLIKEAILDNDFMKNLELSQIQEIVDCMYPVEYGKDSCIIKEGDVGSLVYVMEDGKVEVTKEGVKLCTMGPGKVFGELAILYNCTRTATVKTLVNVKLWAIDRQCFQTIMMRTGLIKHTEYMEFLKSVPTFQSLPEEILSKLADVLEETHYENGEYIIRQGARGDTFFIISKGTVNVTREDSPSEDPVFLRTLGKGDWFGEKALQGEDVRTANVIAAEAVTCLVIDRDSFKHLIGGLDDVSNKAYEDAEAKAKYEAEAAFFANLKLSDFNIIDTLGVGGFGRVELVQLKSEESKTFAMKILKKRHIVDTRQQEHIRSEKQIMQGAHSDFIVRLYRTFKDSKYLYMLMEACLGGELWTILRDRGSFEDSTTRFYTACVVEAFAYLHSKGIIYRDLKPENLILDHRGYAKLVDFGFAKKIGFGKKTWTFCGTPEYVAPEIILNKGHDISADYWSLGILMYELLTGSPPFSGPDPMKTYNIILRGIDMIEFPKKIAKNAANLIKKLCRDNPSERLGNLKNGVKDIQKHKWFEGFNWEGLRKGTLTPPIIPSVASPTDTSNFDSFPEDNDEPPPDDNSGWDIDF
modifications: intermolecular disulfide bond at Cys42 between the two subunits
With B1 the “equilibrium redox potential of the Cys42 interchain disulfide bond” value was “approximately −280 mV”.
